For 133 substances, amyloid nucleation score results are on record in the supplement of paper PMC12042874.

± gives the uncertainty stated by the source.

The data set is described as follows: amyloid nucleation score (Sup35N fusion, yeast selection) (log enrichment); library NNK3; higher = more nucleation; inactive = no reads after selection. In short, it runs like this:
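Peptides of 20 random codons fused to Sup35N were expressed in psi-negative yeast, induced 24 hours with 100 μM copper sulfate, then grown 7 days at 30°C on medium lacking adenine and uracil. Input and output plasmid inserts were Illumina-sequenced. Nucleation score is the DiMSum log enrichment of output over input reads, centred on the mode score of non-aggregating sequences, excluding sequences with under 100 input reads. Random libraries had three technical output replicates.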

LFMMCGHMEYAIVKNRVDKS: the amyloid nucleation score is 0.016 ± 0.46.

Consider IPVFMLLMYRVSMMDSSSKS, for which the amyloid nucleation score result was “inactive”.

CTGYDCVGMGADFCARMWHC: the amyloid nucleation score entry was “inactive”.

On to GRKAWDEL, for which the amyloid nucleation score entry is “inactive”.

On to TSKREWLMRNYAHCTNFDGR, for which the amyloid nucleation score result is “inactive”.

For the substance IDIESL, the amyloid nucleation score entry is “inactive”.

Turning to CCLTIGSKPIYHCWQLGIMA, the amyloid nucleation score result is “inactive”.

For YYVLPASG, the amyloid nucleation score entry was “inactive”.

As to VRIFSTVEKASP, the amyloid nucleation score entry was “inactive”.

For KCNPVINFLWEMVLSDVFPL, the amyloid nucleation score entry was “inactive”.

Regarding VREFYN, the amyloid nucleation score entry is “inactive”.

Take PSGVTSCLKEWDSRDHGHRH: the amyloid nucleation score result is “inactive”.

As to TRALT, the amyloid nucleation score result is “inactive”.

In the case of SGGLRLLGKSLLWTAVCTNT, the amyloid nucleation score entry is “inactive”.

As to VIVRRSQFTELICLFYNFTM, the amyloid nucleation score entry is “inactive”.

Consider CHKVLWSSVKTVDFMLSNMG, for which the amyloid nucleation score entry is “inactive”.

DILGVCLSMNYWVI: the amyloid nucleation score result was “inactive”.

Turning to YPGFSAGCDVWQKFNYGVMT, the amyloid nucleation score result was “inactive”.

Regarding QEIRTVTGALTDTWIVFICR, the amyloid nucleation score entry is “inactive”.

RNLLRSTLKGYFWYSCNVDV: the amyloid nucleation score result is “inactive”.

For GTGTRSHTLA, the amyloid nucleation score entry was “inactive”.

As to CYPTSFGCFFVFFWYYVYCG, the amyloid nucleation score result is “inactive”.

As to DSLLDGYSHWAKWGSTRCVR, the amyloid nucleation score entry was “inactive”.

For the substance TQRRFMYMAFNQYMSQSSSR, the amyloid nucleation score result is “inactive”.

Regarding DFVDARFWQIFGFSNAEQGL, the amyloid nucleation score entry was “inactive”.

For the substance QIVRYASSQCDCRNFLSTVE, the amyloid nucleation score entry is “inactive”.

Turning to LNRSSFHLELITSTCKVFLV, the amyloid nucleation score result is “inactive”.

CCRVRTS: the amyloid nucleation score entry was “inactive”.

As to IVCGISMIS, the amyloid nucleation score entry is “inactive”.

Take VNFCFFFKLLRGRSGYHLSW: the amyloid nucleation score is 2.15 ± 0.09.

Take LGVEVSMMTWCRMSSSMLMT: the amyloid nucleation score entry is “inactive”.

Regarding MKFVPHYEGVYCL, the amyloid nucleation score result is “inactive”.

VLTFNKGFFGC: the amyloid nucleation score came out at 1.26 ± 0.11.

Take MFLGNVMTILIEMGFQKALT: the amyloid nucleation score was 0.93 ± 0.17.

Consider FRWHLCRFCWKRIFASTMLA, for which the amyloid nucleation score entry is “inactive”.

FFTMSKI: the amyloid nucleation score entry was “inactive”.

In the case of NEVMGFFNDQWRMIWWGYPR, the amyloid nucleation score entry is “inactive”.

For WLSNREVFKMYIRLVQLAWL, the amyloid nucleation score entry was “inactive”.

Consider VAVDIRALFRGRWVMNLARR, for which the amyloid nucleation score was -0.75 ± 1.5.

In the case of RIFYKVDTDGIIIIVYS, the amyloid nucleation score result is “inactive”.

Turning to CAQMPCMLENGP, the amyloid nucleation score result was “inactive”.

Regarding KDALISYFYYDCMHCPQASR, the amyloid nucleation score result was “inactive”.

As for PNSLRRCVSRLVPRGLPRKR, the amyloid nucleation score entry is “inactive”.

WAHLGLDNMYKVLCSRGANA: the amyloid nucleation score result was “inactive”.

SPTRQLIKFKYSGHYIVHLR: the amyloid nucleation score result was “inactive”.

As to NSDFLSTVGYEGLLHTQGCA, the amyloid nucleation score result is “inactive”.

On to LDGTGCDGPLARKNCGRNAV, for which the amyloid nucleation score result is “inactive”.

With QTNLGPFVPSYGCFLCWMEG, the amyloid nucleation score entry is “inactive”.

For the substance LFCAV, the amyloid nucleation score entry was “inactive”.

Turning to GSEHYLPSYYRFFLLVFYDV, the amyloid nucleation score entry was “inactive”.

With SWKGGLQTDDGSKGS, the amyloid nucleation score result was “inactive”.

For the substance TSQYRPERKLRVR, the amyloid nucleation score result is “inactive”.

On to LGVLMLQSTRFAAWVSSLGR, for which the amyloid nucleation score result is “inactive”.

Consider RGYSANWNLMVAVTCGTIH, for which the amyloid nucleation score is -0.422 ± 0.71.

Turning to KALVGKYFKMCRTCDRYFYC, the amyloid nucleation score is -0.416 ± 0.98.

Regarding QFFCFNRLWDWVTFRVIDMS, the amyloid nucleation score result is “inactive”.

Consider RVYKSV, for which the amyloid nucleation score entry was “inactive”.

Consider FAYWWRTVTPVCSGLVRYCW, for which the amyloid nucleation score result was “inactive”.

In the case of ILRSLVSLWYGCDCW, the amyloid nucleation score was found to be 0.661 ± 0.16.

The substance VITLYVVGVYWGGNDIGDFM displayed an amyloid nucleation score of 0.976 ± 0.19.

In the case of CVDQT, the amyloid nucleation score entry is “inactive”.

In the case of WYVYKFCEPVGDRGRFVWCL, the amyloid nucleation score was -0.212 ± 0.84.

With SDCCYRTYVEIQKWSLVF, the amyloid nucleation score result was “inactive”.

For the substance EFWQFDRYVLSNTVSLFSGC, the amyloid nucleation score result was “inactive”.

In the case of YFGGRM, the amyloid nucleation score entry was “inactive”.

As for YANWLVLILYG, the amyloid nucleation score turned out to be 1.32 ± 0.11.

Turning to HNDSYRMWGRGPPIVLT, the amyloid nucleation score entry is “inactive”.

For the substance YVDLAGLMLMADMA, the amyloid nucleation score entry is “inactive”.

As to VWETATNFSISMLWRQAFRM, the amyloid nucleation score result is “inactive”.

As to RSDSADLIKG, the amyloid nucleation score entry is “inactive”.

With CLLYSYCCPRKIVN, the amyloid nucleation score entry is “inactive”.

Regarding WTRHGSEFVCYNSGHLWVFD, the amyloid nucleation score came out at 0.164 ± 0.31.

Take CMLCKPWSSQVNSY: the amyloid nucleation score entry is “inactive”.

For TFSFILRSNLLYENRSVDRA, the amyloid nucleation score turned out to be 1.57 ± 0.077.

Consider ICRLRPLSWMWFAAYSCLFN, for which the amyloid nucleation score entry was “inactive”.

FLSFSFYLVYRRKSVRFQ: the amyloid nucleation score result is “inactive”.

Consider SCLRGNTAKFFSKVSRVCDK, for which the amyloid nucleation score turned out to be 0.133 ± 0.98.

With HYTHSNLQAPDPH, the amyloid nucleation score result was “inactive”.

In the case of GVSILCLVLWSMWTLGGESW, the amyloid nucleation score entry was “inactive”.

In the case of LRRYALLVNAAQKEMRYSSS, the amyloid nucleation score was -0.616 ± 1.1.

Consider YRLQLPYSVNEAVFLLVGSK, for which the amyloid nucleation score result is “inactive”.

NTFVDGKSRYYSYLRIVQIL: the amyloid nucleation score result is “inactive”.

On to KLFGTKIVIVDVDSLCYMVL, for which the amyloid nucleation score entry is “inactive”.

LSRDGVFVPPTSRSYHPRLK: the amyloid nucleation score result was “inactive”.

On to RGQFICRCGVARPV, for which the amyloid nucleation score result was “inactive”.

In turn, LNCMVITFVCFLVSNSIGGD gave an amyloid nucleation score of 1.71 ± 0.11.

As for CKVYGKSLVMAYN, the amyloid nucleation score entry is “inactive”.

Take RKGSVKEFRYNMSNLESVCS: the amyloid nucleation score result was “inactive”.

In the case of DFVRVEMNYLDENDGGCYL, the amyloid nucleation score result was “inactive”.

As for GFHTI, the amyloid nucleation score is -0.223 ± 0.73.

Substance LGRAQYETQFSATSVRLEPG registered an amyloid nucleation score of -0.142 ± 0.82.

Regarding PRLTFSVVVRFCIHTLCLLK, the amyloid nucleation score entry was “inactive”.

As to MNEGQSYYKVVITPELLAAR, the amyloid nucleation score is -0.545 ± 0.96.

Turning to SDCSIHKSGYVTDTACDVFD, the amyloid nucleation score entry was “inactive”.

For GIVSYCICIFGNFQK, the amyloid nucleation score was found to be 2.64 ± 0.064.

In turn, TYLRLTWIDCYSPCFKSNAI showed an amyloid nucleation score of 2.43 ± 0.061.

Regarding MRTNTPIFLVLGKIS, the amyloid nucleation score entry is “inactive”.

WGNISGSA: the amyloid nucleation score result was “inactive”.

On to IGFNA, for which the amyloid nucleation score entry was “inactive”.

In the case of VIGRTASDGVRCCRVGMMRR, the amyloid nucleation score entry was “inactive”.

The substance MYLNNFAWRVTVWNIFVHAL returned an amyloid nucleation score of 0.512 ± 0.16.

Take GRPRVI: the amyloid nucleation score result was “inactive”.

For VNTLPQLLSLYSDLLRGESL, the amyloid nucleation score was -0.218 ± 1.4.

For the substance FVMFAKASRGCTVSLCVYDV, the amyloid nucleation score was -0.37 ± 0.39.

For IVTTQHMNGRSDYWITYSSV, the amyloid nucleation score is -0.447 ± 0.74.

As for LLMKMHDAIAG, the amyloid nucleation score result was “inactive”.

Regarding CLLCGSRHFRHRLGFVSYRI, the amyloid nucleation score entry is “inactive”.

Substance FQSHLNIVIVYIRLNYTVLL had an amyloid nucleation score of -0.394 ± 0.63.

As to ILQTLQDVRVRGMDISTASL, the amyloid nucleation score entry is “inactive”.

Consider IISQIRCFNLPEVPSSTMCL, for which the amyloid nucleation score entry is “inactive”.

As for LKGVYSERPNRDAG, the amyloid nucleation score result was “inactive”.

RAHIPWKRCFV came in with an amyloid nucleation score of -1.06 ± 1.9.

MMWDL: the amyloid nucleation score entry is “inactive”.

As for RFAPFMRGM, the amyloid nucleation score was -0.784 ± 1.5.

As for LSDCRSWVPCGRHCSF, the amyloid nucleation score entry was “inactive”.

Regarding ETYFAQWLNFL, the amyloid nucleation score entry was “inactive”.

In the case of GCTDIHASEH, the amyloid nucleation score result is “inactive”.

Consider KEDLTSLVTLEKEALLVSDE, for which the amyloid nucleation score result is “inactive”.

IFSNLGVVNLCRACFKYSNI yielded an amyloid nucleation score of 2.92 ± 0.059.

On to AERAWYGGCLNRILLSVCCH, for which the amyloid nucleation score result is “inactive”.

As to ITGHRNVLIEHMVTTP, the amyloid nucleation score result was “inactive”.

In the case of LTNGRNTYFLLSRYYFGTTS, the amyloid nucleation score result was “inactive”.

Regarding RTYDVCQTRVCKRAKWEGDT, the amyloid nucleation score result was “inactive”.

On to MRRGEDCVV, for which the amyloid nucleation score entry was “inactive”.

With RNMEPDASVATV, the amyloid nucleation score entry was “inactive”.

With RMLDG, the amyloid nucleation score result is “inactive”.

Turning to EWPVNTNVYFCFMYTANFNT, the amyloid nucleation score was determined as 2.63 ± 0.055.

For LLLTSVL, the amyloid nucleation score entry is “inactive”.

LHLAMSRTLSHSPHSCV: the amyloid nucleation score entry is “inactive”.

The substance VMVFN displayed an amyloid nucleation score of 0.635 ± 0.36.

As to YYCSDLSRSMDRSLRSTWPF, the amyloid nucleation score entry was “inactive”.

In the case of SAVSTRW, the amyloid nucleation score entry was “inactive”.

For the substance MTESNGGFPG, the amyloid nucleation score entry is “inactive”.
